Measurements taken from publication PMC6895265.

What was measured:
[1] = molecular target: TCF4 bHLH domain (Homo sapiens) (UniProt P15884); assay: FP; settings: 25 C
[2] = molecular target: TCF4 bHLH domain (Homo sapiens) (UniProt P15884); assay: ITC; settings: ITC: 20 mM Tris pH 7.5, 150 mM NaCl, 25 C

Chain of TCF4 bHLH domain (Homo sapiens) (P15884 565-624): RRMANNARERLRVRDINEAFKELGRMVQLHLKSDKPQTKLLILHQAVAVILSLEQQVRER

Sequence: CCGGTCACGTGTCCTA (double strand) [FAM 16-mer E-box C/C]
- Kd ([1]; ITC: 20 mM Tris pH 7.5, 150 mM NaCl): 110 nM

Sequence: CCGGTCACGTGTCCTA (double strand) [FAM 16-mer central CpG F/C]
- Kd ([1]; 5fC at strand 1 C8, ITC: 20 mM Tris pH 7.5, 150 mM NaCl): 190 nM

Sequence: CCGGTCACGTGTCCTA (double strand) [FAM 16-mer central CpG H/C]
- Kd ([1]; 5hmC at strand 1 C8, ITC: 20 mM Tris pH 7.5, 150 mM NaCl): 160 nM

Sequence: ACGCACGTGCGT (double strand) [12-mer CG-flanked, X=C]
- Kd [2]: 370 nM

Sequence: CCGGTCACGTGTCCTA (double strand) [FAM 16-mer central CpG M/C]
- Kd ([1]; 5mC at strand 1 C8, ITC: 20 mM Tris pH 7.5, 150 mM NaCl): 160 nM

Sequence: CCGGTCACGTGTCCTA (double strand) [FAM 16-mer central CpG 5caC/C]
- Kd ([1]; 5caC at strand 1 C8, ITC: 20 mM Tris pH 7.5, 150 mM NaCl): 140 nM
